Measurements from PMC3156716.

Target: T1, His6-PhoP (Pseudomonas aeruginosa PAO1?) (UniProt Q9I4F9)
T1 sequence: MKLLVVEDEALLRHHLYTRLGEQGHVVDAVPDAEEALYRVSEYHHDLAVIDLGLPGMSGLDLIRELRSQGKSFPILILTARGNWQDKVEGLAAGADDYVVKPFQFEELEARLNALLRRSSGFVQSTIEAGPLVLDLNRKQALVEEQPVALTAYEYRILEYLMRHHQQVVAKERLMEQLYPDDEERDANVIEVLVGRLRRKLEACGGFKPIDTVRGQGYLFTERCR
Assay: EMSA
Settings: DIG Gel Shift Kit 2nd Generation (Roche) per manufacturer; 6% native polyacrylamide gel; buffer, salt, pH and temperature not stated

Q: With “GAGGATCCGTGAATGGCCGGATTATAGCCAAGTGGCCGTGGCAACGGCATAGGCCGCGGAAGCGCCGTGCGGCGCCCGCGGCTTCGGGCCCGGTCAGGACTCGCCGCGCTCGCGGGCGATGGCACGGTAGCCGATGTCCTTGCGGTAGAAGCAGCCGTTCCAGCGGATCTTCTCGGCCAGGCGATAGGCCTGTTGCTGGGCGGCGGACACGCTCTCGCCGATGGCGGTGGCACAGAGCACGCGGCCGCCTCGAGTC (double strand) [truncated retS promoter, 255 bp, lacking PhoP box]” as the sequence, how does the binding read?
A: no binding

Q: How did the binding turn out when “GAGGATCCCAGGAGTGATATTAGCGATTCCCAGTGCTCCCGCAACCTGCCAGAAAACCCAGCGAAGCTTCTTCGGCAGCCATTTTAGAAAAATATATTCCTTTAATTTCAATAAGTTACTTAAATTCACCGAGCGTTTTTGGCAAACCTCCCGGGCATTTATCTACTTAGGCTCACACGCCGTGTAAGTTAATGCTTACAAGAGCAGACACAAAAAACCCGGCGGATCCTC (double strand) [rsmZ promoter, full length]” was run?
A: binds
